Seven molecules from patent US20190119407A1 (Amgen, published 2019) can be followed below.

Experiment [1] concerns the target T1, cynomolgus TL1A (cynomolgus monkey, UniProt G7PRK8 72-251).
T1 sequence: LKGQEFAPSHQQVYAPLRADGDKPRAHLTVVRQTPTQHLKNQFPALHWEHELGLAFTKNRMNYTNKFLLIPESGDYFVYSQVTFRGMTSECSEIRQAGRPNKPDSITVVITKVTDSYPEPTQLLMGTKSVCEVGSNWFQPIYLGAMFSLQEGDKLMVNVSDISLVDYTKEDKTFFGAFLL
Briefly: cell-based or functional assay.

In experiment [2] the target is T2, human TL1A (human, UniProt O95150 72-251, limits assumed).
T2 sequence (looked up): T1 sequence with L39F, V78I
Nature of the experiment: cell-based or functional assay.

The target in experiment [3] is T1, cynomolgus TL1A. Nature of the experiment: SPR, mAb captured on anti-human Fc chip, TL1A injected, 1:1 model.
Procedure: (§1) On rate, off rate and equilibrium dissociation constant were calculated using 1:1 binding model on BIAevaluation software.
In experiment [4] the target is T2, human TL1A. The description is as above.
Procedure: as §1
Experiment [5] deals with T1, cynomolgus TL1A. Nature of the experiment: SPR, Fab captured on anti-huFab chip, TL1A injected, 1:1 model.
Procedure: as §1
Experiment [6] concerns the target T2, human TL1A. The experiment is described as above.
Procedure: as §1
Experiment [7] has as its target T3, human TNF-α (human, UniProt P01375 77-233).
T3 construct: also called Hu TNF; soluble hu TNF
Nature of the experiment: SPR, bispecific captured on anti-human Fc chip, TNF injected, 1:1 model.
Procedure: Goat anti-human Fc was first immobilized on SCM5 sensor chip using amine coupling. […] On rate, off rate and equilibrium dissociation constant were calculated using 1:1 binding model on BIAevaluation software.

For experiment [8], the target named is T2, human TL1A. Briefly: SPR, bispecific captured on anti-human Fc chip, TL1A injected, 1:1 model.
Procedure: as §1
Experiment [9] has as its target T1, cynomolgus TL1A. Nature of the experiment: SPR, Fab captured on anti-huFab chip, TL1A injected.
Procedure: as §1

Residue numbers refer to the chain shown, from its start. A value given as a limit tells only on which side of the number the result lay.

T3 sequence (P01375 77-233 limits assumed): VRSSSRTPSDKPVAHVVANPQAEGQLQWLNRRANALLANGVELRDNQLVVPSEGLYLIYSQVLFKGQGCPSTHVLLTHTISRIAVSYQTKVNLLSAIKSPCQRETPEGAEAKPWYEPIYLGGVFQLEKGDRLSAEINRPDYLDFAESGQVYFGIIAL

B1: anti-TL1A mAb 23B3 (antibody, human IgG1, kappa, N297G, V domains shown)
VH: QVQLQQSGPGLVKPSQTLSLTCVISGDSVSTNSVAWNWIRQSPSRGLEWLGRTYYRSKWYNDYAVSVKSRITINPDTSKNQFSLQLNSVTPEDTAVYYCAREDGDSYYRYGMDVWGQGTTVTVSS
VL: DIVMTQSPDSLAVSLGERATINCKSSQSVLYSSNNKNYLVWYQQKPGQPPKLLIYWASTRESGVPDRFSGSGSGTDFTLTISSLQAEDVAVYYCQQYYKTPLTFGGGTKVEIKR
notes: also called iPS 290043
Take B1: the “NF-kB IC50 nM, cyno TL1A (2 nM)” value in [1] came out at 0.619 nM. Moreover, the “NF-kB IC50 nM, huTL1A (0.2 nM)” value in experiment [2] came to 0.089 nM. In experiment [3], this molecule returned a Kd of 1.4 nM, a koff of 0.00032 s⁻¹ and a kon of 230000 M⁻¹ s⁻¹. In [4], this molecule registered a Kd of 0.89 nM, a koff of 0.00042 s⁻¹ and a kon of 470000 M⁻¹ s⁻¹.

B2: anti-TL1A Fab 23B3 (Fab, V domains shown)
VH: B1 VH
VL: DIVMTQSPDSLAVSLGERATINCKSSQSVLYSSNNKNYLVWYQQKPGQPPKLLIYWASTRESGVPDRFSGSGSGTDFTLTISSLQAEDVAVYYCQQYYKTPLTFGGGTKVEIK
notes: Fab fragment; the Fab's constant parts are not; also called 23B3 Fab; PL-38024
Regarding B2, in experiment [1], the “NF-kB IC50 nM, cyno TL1A (2 nM)” value was 2.63 nM. For the same molecule, the “NF-kB IC50 nM, huTL1A (0.2 nM)” value in experiment [2] was determined as 2.99 nM. In addition, in experiment [5], binding was characterised by a dissociation constant (Kd) of 0.31 nM, the koff turned out to be 0.00016 s⁻¹ and the kon is 530000 M⁻¹ s⁻¹. Moreover, in experiment [6], the Kd is 0.85 nM, the koff stood at 0.00064 s⁻¹ and the kon came out at 760000 M⁻¹ s⁻¹.

B3: hetero Ig certolizumab var/23B3 VH4, iPS 349463 (bispecific antibody, human IgG1, kappa, N297G)
light 1: not shown
heavy 1: not shown
light 2: not shown
heavy 2: QVQLQESGPGLVKPSETLSLTCTISGDSVSTNSVAWNWIREPPGKGLEWIGRTYYRSKWYNDYAVSLKSRVTISPDTSKNQFSLKLSSVTAADTAVYYCAREDGDSYYRYGMDVWGQGTTVTVSSASTKGPSVFPLAPSSKSTSGGTAALGCLVKDYFPEPVTVSWNSGALTSGVHTFPAVLQSSGLYSLESVVTVPSSSLGTQTYICNVNHKPSNTKVDKKVEPKSCDKTHTCPPCPAPELLGGPSVFLFPPKPKDTLMISRTPEVTCVVVDVSHEDPEVKFNWYVDGVEVHNAKTKPCEEQYGSTYRCVSVLTVLHQDWLNGKEYKCKVSNKALPAPIEKTISKAKGQPREPQVYTLPPSRKEMTKNQVSLTCLVKGFYPSDIAVEWESNGQPENNYKTTPPVLKSDGSFFLYSKLTVDKSRWQQGNVFSCSVMHEALHNHYTQKSLSLSPGK
notes: Heterotetramer with one arm against TNF-α and one against TL1A; also called PL-42788
As to B3, in experiment [7], the affinity, expressed as Kd, was 0.016 nM; the koff came to 5.5e-05 s⁻¹; the kon was 3.4e+06 M⁻¹ s⁻¹. In experiment [8], this molecule showed a Kd of 0.64 nM, a koff of 0.0004 s⁻¹ and a kon of 630000 M⁻¹ s⁻¹.

B4: anti-TL1A Fab 3C6 (Fab, V domains shown)
VH: QVQLVESGGGVVQPGRSLRLSCAASGFTFSSYGMHWVRQAPGKGLEWVAVISYDGNNKLYTDSVKGRFTISRDDSKSTLYLQMNSLRAEDTAVYYCARDPTVTLYYYYGMDVWGQGTTVTVSS
VL: DIQMTQSPSSLSASVGDRVTITCRTSQDIRDDLGWYQQKPGKAPKRLIYDASSLQSGVPSRFSGSGSGTEFTLTISSLQPEDFATYYCLQHNSYPPTFGQGTKVEIK
notes: Fab fragment; the Fab's constant parts are not; also called 3C6 Fab; PL-39193
For B4, the “NF-kB IC50 nM, cyno TL1A (2 nM)” value in [1] was greater than 100 nM. Also, the “NF-kB IC50 nM, huTL1A (0.2 nM)” value in experiment [2] was 0.162 nM. Further, the binding result in experiment [9] is “no binding (tested: 100 nM)”. In experiment [6], the Kd was less than 0.1 nM and the koff is less than 5e-05 s⁻¹.

B5: anti-TL1A Fab 17E9 (Fab, V domains shown)
VH: B4 VH with F29L, I51M, T61A, D74N, S77K, P100E, V102E, M110I
VL: B4 VL with T25A, D28G, R30S, D31N, G34A, Y49F, D50A, Q100G
notes: Fab fragment; the Fab's constant parts are not; also called 17E9 Fab; PL-39194
With B5, the “NF-kB IC50 nM, cyno TL1A (2 nM)” value in experiment [1] was greater than 100 nM. For the same molecule, in experiment [2], the “NF-kB IC50 nM, huTL1A (0.2 nM)” value is 70.8 nM. In addition, the binding result in experiment [9] is on record as “no binding (tested: 100 nM)”. In experiment [6], the Kd was less than 0.1 nM and the koff was less than 5e-05 s⁻¹.

B6: anti-TL1A mAb 17E9 (antibody, human IgG1, kappa, N297G, V domains shown)
VH: B4 VH with F29L, I51M, T61A, D74N, S77K, P100E, V102E, M110I
VL: DIQMTQSPSSLSASVGDRVTITCRASQGISNDLAWYQQKPGKAPKRLIFAASSLQSGVPSRFSGSGSGTEFTLTISSLQPEDFATYYCLQHNSYPPTFGGGTKVEIKR
notes: also called PL-39113; iPS 284078
For B6, in experiment [1], the “NF-kB IC50 nM, cyno TL1A (2 nM)” value was greater than 100 nM. In experiment [2], the “NF-kB IC50 nM, huTL1A (0.2 nM)” value was determined as 0.168 nM. In experiment [3], the affinity, expressed as Kd, was 2.8 nM; the koff was 0.002 s⁻¹; the kon came to 730000 M⁻¹ s⁻¹. Further, in [4], the Kd was 0.22 nM, the koff was 5.3e-05 s⁻¹ and the kon came out at 250000 M⁻¹ s⁻¹.

B7: hetero Ig certolizumab var/2G11 var, iPS 349461 (bispecific antibody, human IgG1, kappa, N297G)
light 1: not shown
heavy 1: not shown
light 2: DIQMTQSPSSLSASVGDRVTITCRASQSINNYLNWYQKKPGKAPKLLIYATSSLQSGVPSRFSGSGSGTDFSLTISSLQPEDFATYFCQQSYSTPRTFGQGTKVEIKRTVAAPSVFIFPPSDEQLKSGTASVVCLLNNFYPREAKVQWKVDNALQSGNSQESVTEQDSKDSTYSLKSTLTLSKADYEKHKVYACEVTHQGLSSPVTKSFNRGEC
heavy 2: QVQLQESGPGLVKPSETLSLTCTVSGGSISSYFWSWIREPPGKGLEWIGYIYYSGSTNYNPSLKSRVTMSIDTSKNQFSLKLSSVTAADTAVYYCAREIGSYYGFDYWGQGTLVTVSSASTKGPSVFPLAPSSKSTSGGTAALGCLVKDYFPEPVTVSWNSGALTSGVHTFPAVLQSSGLYSLESVVTVPSSSLGTQTYICNVNHKPSNTKVDKKVEPKSCDKTHTCPPCPAPELLGGPSVFLFPPKPKDTLMISRTPEVTCVVVDVSHEDPEVKFNWYVDGVEVHNAKTKPCEEQYGSTYRCVSVLTVLHQDWLNGKEYKCKVSNKALPAPIEKTISKAKGQPREPQVYTLPPSRKEMTKNQVSLTCLVKGFYPSDIAVEWESNGQPENNYKTTPPVLKSDGSFFLYSKLTVDKSRWQQGNVFSCSVMHEALHNHYTQKSLSLSPGK
notes: Heterotetramer with one arm against TNF-α and one against TL1A; also called PL-42787
In experiment [7], B7 gave a Kd of 0.019 nM, a koff of 6.4e-05 s⁻¹ and a kon of 3.4e+06 M⁻¹ s⁻¹. In experiment [8], this molecule showed a Kd of 0.25 nM, a koff of 0.00013 s⁻¹ and a kon of 540000 M⁻¹ s⁻¹.
